Measurements: paper PMC11574045, “A cofactor-induced repressive type of transcription factor condensation can be induced by synthetic peptides to suppress tumorigenesis” (The EMBO Journal, 2024)

B1: TRPS1 (protein, UniProt Q9UHF7 1-1281, looked up)
Zinc finger transcription …: MVRKKNPPLRNVASEGEGQILEPIGTESKVSGKNKEFSADQMSENTDQSDAAELNHKEEHSLHVQDPSSSSKKDLKSAVLSEKAGFNYESPSKGGNFPSFPHDEVTDRNMLAFSSPAAGGVCEPLKSPQRAEADDPQDMACTPSGDSLETKEDQKMSPKATEETGQAQSGQANCQGLSPVSVASKNPQVPSDGGVRLNKSKTDLLVNDNPDPAPLSPELQDFKCNICGYGYYGNDPTDLIKHFRKYHLGLHNRTRQDAELDSKILALHNMVQFSHSKDFQKVNRSVFSGVLQDINSSRPVLLNGTYDVQVTSGGTFIGIGRKTPDCQGNTKYFRCKFCNFTYMGNSSTELEQHFLQTHPNKIKASLPSSEVAKPSEKNSNKSIPALQSSDSGDLGKWQDKITVKAGDDTPVGYSVPIKPLDSSRQNGTEATSYYWCKFCSFSCESSSSLKLLEHYGKQHGAVQSGGLNPELNDKLSRGSVINQNDLAKSSEGETMTKTDKSSSGAKKKDFSSKGAEDNMVTSYNCQFCDFRYSKSHGPDVIVVGPLLRHYQQLHNIHKCTIKHCPFCPRGLCSPEKHLGEITYPFACRKSNCSHCALLLLHLSPGAAGSSRVKHQCHQCSFTTPDVDVLLFHYESVHESQASDVKQEANHLQGSDGQQSVKESKEHSCTKCDFITQVEEEISRHYRRAHSCYKCRQCSFTAADTQSLLEHFNTVHCQEQDITTANGEEDGHAISTIKEEPKIDFRVYNLLTPDSKMGEPVSESVVKREKLEEKDGLKEKVWTESSSDDLRNVTWRGADILRGSPSYTQASLGLLTPVSGTQEQTKTLRDSPNVEAAHLARPIYGLAVETKGFLQGAPAGGEKSGALPQQYPASGENKSKDESQSLLRRRRGSGVFCANCLTTKTSLWRKNANGGYVCNACGLYQKLHSTPRPLNIIKQNNGEQIIRRRTRKRLNPEALQAEQLNKQQRGSNEEQVNGSPLERRSEDHLTESHQREIPLPSLSKYEAQGSLTKSHSAQQPVLVSQTLDIHKRMQPLHIQIKSPQESTGDPGNSSSVSEGKGSSERGSPIEKYMRPAKHPNYSPPGSPIEKYQYPLFGLPFVHNDFQSEADWLRFWSKYKLSVPGNPHYLSHVPGLPNPCQNYVPYPTFNLPPHFSAVGSDNDIPLDLAIKHSRPGPTANGASKEKTKAPPNVKNEGPLNVVKTEKVDRSTQDELSTKCVHCGIVFLDEVMYALHMSCHGDSGPFQCSICQHLCTDKYDFTTHIQRGLHRNNAQVEKNGKPKE
B2: TSHZ2 (protein, UniProt Q9NRE2 1-1034, looked up)
Teashirt homolog 2: MPRRKQQAPKRAAGYAQEEQLKEEEEIKEEEEEEDSGSVAQLQGGNDTGTDEELETGPEQKGCFSYQNSPGSHLSNQDAENESLLSDASDQVSDIKSVCGRDASDKKAHTHVRLPNEAHNCMDKMTAVYANILSDSYWSGLGLGFKLSNSERRNCDTRNGSNKSDFDWHQDALSKSLQQNLPSRSVSKPSLFSSVQLYRQSSKMCGTVFTGASRFRCRQCSAAYDTLVELTVHMNETGHYQDDNRKKDKLRPTSYSKPRKRAFQDMDKEDAQKVLKCMFCGDSFDSLQDLSVHMIKTKHYQKVPLKEPVPTISSKMVTPAKKRVFDVNRPCSPDSTTGSFADSFSSQKNANLQLSSNNRYGYQNGASYTWQFEACKSQILKCMECGSSHDTLQQLTTHMMVTGHFLKVTSSASKKGKQLVLDPLAVEKMQSLSEAPNSDSLAPKPSSNSASDCTASTTELKKESKKERPEETSKDEKVVKSEDYEDPLQKPLDPTIKYQYLREEDLEDGSKGGGDILKSLENTVTTAINKAQNGAPSWSAYPSIHAAYQLSEGTKPPLPMGSQVLQIRPNLTNKLRPIAPKWKVMPLVSMPTHLAPYTQVKKESEDKDEAVKECGKESPHEEASSFSHSEGDSFRKSETPPEAKKTELGPLKEEEKLMKEGSEKEKPQPLEPTSALSNGCALANHAPALPCINPLSALQSVLNNHLGKATEPLRSPSCSSPSSSTISMFHKSNLNVMDKPVLSPASTRSASVSRRYLFENSDQPIDLTKSKSKKAESSQAQSCMSPPQKHALSDIADMVKVLPKATTPKPASSSRVPPMKLEMDVRRFEDVSSEVSTLHKRKGRQSNWNPQHLLILQAQFASSLFQTSEGKYLLSDLGPQERMQISKFTGLSMTTISHWLANVKYQLRKTGGTKFLKNMDKGHPIFYCSDCASQFRTPSTYISHLESHLGFQMKDMTRLSVDQQSKVEQEISRVSSAQRSPETIAAEEDTDSKFKCKLCCRTFVSKHAVKLHLSKTHSKSPEHHSQFVTDVDEE
B3: TSC22D2 (protein, UniProt O75157 1-780, looked up)
TSC22 domain family protein 2: MSKMPAKKKSCFQITSVTTAQVATSITEDTESLDDPDESRTEDVSSEIFDVSRATDYGPEEVCERSSSEETLNNVGDAETPGTVSPNLLLDGQLAAAAAAPANGGGVVSARSVSGALASTLAAAATSAPAPGAPGGPQLAGSSAGPVTAAPSQPPTTCSSRFRVIKLDHGSGEPYRRGRWTCMEYYERDSDSSVLTRSGDCIRHSSTFDQTAERDSGLGATGGSVVVVVASMQGAHGPESGTDSSLTAVSQLPPSEKMSQPTPAQPQSFSVGQPQPPPPPVGGAVAQSSAPLPPFPGAATGPQPMMAAAQPSQPQGAGPGGQTLPPTNVTLAQPAMSLPPQPGPAVGAPAAQQPQQFAYPQPQIPPGHLLPVQPSGQSEYLQQHVAGLQPPSPAQPSSTGAAASPATAATLPVGTGQNASSVGAQLMGASSQPSEAMAPRTGPAQGGQVAPCQPTGVPPATVGGVVQPCLGPAGAGQPQSVPPPQMGGSGPLSAVPGGPHAVVPGVPNVPAAVPAPSVPSVSTTSVTMPNVPAPLAQSQQLSSHTPVSRSSSIIQHVGLPLAPGTHSAPTSLPQSDLSQFQTQTQPLVGQVDDTRRKSEPLPQPPLSLIAENKPVVKPPVADSLANPLQLTPMNSLATSVFSIAIPVDGDEDRNPSTAFYQAFHLNTLKESKSLWDSASGGGVVAIDNKIEQAMDLVKSHLMYAVREEVEVLKEQIKELVERNSLLERENALLKSLSSNDQLSQLPTQQANPGSTSQQQAVIAQPPQPTQPPQQPNVSSA
B4: TRIP4 (protein, UniProt Q15650 2-581, looked up)
Activating signal …: AVAGAVSGEPLVHWCTQQLRKTFGLDVSEEIIQYVLSIESAEEIREYVTDLLQGNEGKKGQFIEELITKWQKNDQELISDPLQQCFKKDEILDGQKSGDHLKRGRKKGRNRQEVPAFTEPDTTAEVKTPFDLAKAQENSNSVKKKTKFVNLYTREGQDRLAVLLPGRHPCDCLGQKHKLINNCLICGRIVCEQEGSGPCLFCGTLVCTHEEQDILQRDSNKSQKLLKKLMSGVENSGKVDISTKDLLPHQELRIKSGLEKAIKHKDKLLEFDRTSIRRTQVIDDESDYFASDSNQWLSKLERETLQKREEELRELRHASRLSKKVTIDFAGRKILEEENSLAEYHSRLDETIQAIANGTLNQPLTKLDRSSEEPLGVLVNPNMYQSPPQWVDHTGAASQKKAFRSSGFGLEFNSFQHQLRIQDQEFQEGFDGGWCLSVHQPWASLLVRGIKRVEGRSWYTPHRGRLWIAATAKKPSPQEVSELQATYRLLRGKDVEFPNDYPSGCLLGCVDLIDCLSQKQFKEQFPDISQESDSPFVFICKNPQEMVVKFPIKGNPKIWKLDSKIHQGAKKGLMKQNKAV
B5: TSHZ1 (protein, UniProt Q6ZSZ6 1-1077, looked up)
Teashirt homolog 1: MPRRKQQAPRRSAAYVPEEELKAAEIDEEHVEDDGLSLDIQESEYMCNEETEIKEAQSYQNSPVSSATNQDAGYGSPFSESSDQLAHFKGSSSREEKEDPQCPDSVSYPQDSLAQIKAVYANLFSESCWSSLALDLKKSGSTTSTNDASQKESSAPTPTPPTCPVSTTGPTTSTPSTSCSSSTSHSSTTSTSSSSGYDWHQAALAKTLQQTSSYGLLPEPSLFSTVQLYRQNNKLYGSVFTGASKFRCKDCSAAYDTLVELTVHMNETGHYRDDNRDKDSEKTKRWSKPRKRSLMEMEGKEDAQKVLKCMYCGHSFESLQDLSVHMIKTKHYQKVPLKEPVPAITKLVPSTKKRALQDLAPPCSPEPAGMAAEVALSESAKDQKAANPYVTPNNRYGYQNGASYTWQFEARKAQILKCMECGSSHDTLQQLTAHMMVTGHFLKVTTSASKKGKQLVLDPVVEEKIQSIPLPPTTHTRLPASSIKKQPDSPAGSTTSEEKKEPEKEKPPVAGDAEKIKEESEDSLEKFEPSTLYPYLREEDLDDSPKGGLDILKSLENTVSTAISKAQNGAPSWGGYPSIHAAYQLPGTVKPLPAAVQSVQVQPSYAGGVKSLSSAEHNALLHSPGSLTPPPHKSNVSAMEELVEKVTGKVNIKKEERPPEKEKSSLAKAASPIAKENKDFPKTEEVSGKPQKKGPEAETGKAKKEGPLDVHTPNGTEPLKAKVTNGCNNLGIIMDHSPEPSFINPLSALQSIMNTHLGKVSKPVSPSLDPLAMLYKISNSMLDKPVYPATPVKQADAIDRYYYENSDQPIDLTKSKNKPLVSSVADSVASPLRESALMDISDMVKNLTGRLTPKSSTPSTVSEKSDADGSSFEEALDELSPVHKRKGRQSNWNPQHLLILQAQFASSLRETTEGKYIMSDLGPQERVHISKFTGLSMTTISHWLANVKYQLRRTGGTKFLKNLDTGHPVFFCNDCASQFRTASTYISHLETHLGFSLKDLSKLPLNQIQEQQNVSKVLTNKTLGPLGATEEDLGSTFQCKLCNRTFASKHAVKLHLSKTHGKSPEDHLIYVTELEKQ
B6: TRP63 (protein, UniProt Q9H3D4 1-680, looked up)
Tumor protein 63: MNFETSRCATLQYCPDPYIQRFVETPAHFSWKESYYRSTMSQSTQTNEFLSPEVFQHIWDFLEQPICSVQPIDLNFVDEPSEDGATNKIEISMDCIRMQDSDLSDPMWPQYTNLGLLNSMDQQIQNGSSSTSPYNTDHAQNSVTAPSPYAQPSSTFDALSPSPAIPSNTDYPGPHSFDVSFQQSSTAKSATWTYSTELKKLYCQIAKTCPIQIKVMTPPPQGAVIRAMPVYKKAEHVTEVVKRCPNHELSREFNEGQIAPPSHLIRVEGNSHAQYVEDPITGRQSVLVPYEPPQVGTEFTTVLYNFMCNSSCVGGMNRRPILIIVTLETRDGQVLGRRCFEARICACPGRDRKADEDSIRKQQVSDSTKNGDGTKRPFRQNTHGIQMTSIKKRRSPDDELLYLPVRGRETYEMLLKIKESLELMQYLPQHTIETYRQQQQQQHQHLLQKQTSIQSPSSYGNSSPPLNKMNSMNKLPSVSQLINPQQRNALTPTTIPDGMGANIPMMGTHMPMAGDMNGLSPTQALPPPLSMPSTSHCTPPPPYPTDCSIVSFLARLGCSSCLDYFTTQGLTTIYQIEHYSMDDLASLKIPEQFRHAIWKGILDHRQLHEFSSPSHLLRTPSSASTVSVGSSETRGERVIDAVRFTLRQTISFPPRDEWNDFNFDMDARRNKQQRIKEEGE
B7: TSG101 (protein, UniProt Q99816 2-390, looked up)
Tumor susceptibility gene 101 …: AVSESQLKKMVSKYKYRDLTVRETVNVITLYKDLKPVLDSYVFNDGSSRELMNLTGTIPVPYRGNTYNIPICLWLLDTYPYNPPICFVKPTSSMTIKTGKHVDANGKIYLPYLHEWKHPQSDLLGLIQVMIVVFGDEPPVFSRPISASYPPYQATGPPNTSYMPGMPGGISPYPSGYPPNPSGYPGCPYPPGGPYPATTSSQYPSQPPVTTVGPSRDGTISEDTIRASLISAVSDKLRWRMKEEMDRAQAELNALKRTEEDLKKGHQKLEEMVTRLDQEVAEVDKNIELLKKKDEELSSALEKMENQSENNDIDEVIIPTAPLYKQILNLYAEENAIEDTIFYLGEALRRGVIDLDVFLKHVRLLSRKQFQLRALMQKARKTAGLSDLY

Tested on: HEK293FT cells transfected with TF library
Assay: Screening of TF condensates based on fluorescent puncta
Type: cell-based
Conditions: Figure 1B numerical data; TF library screen, one value per transcriptional factor
Method in brief: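 HEK293FT, PEI transfection of TF library, 60 h; ±glucose 12 h; 4% PFA fix, 0.05% Triton X-100 permeabilization, 5% BSA block; anti-Flag/anti-GAL4 overnight at 4 °C, Alexa 488 secondary 1 h; high-content imaging, 50 fields/well.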

Molecule | Z score of condensed fraction
B1 | -0.2124
B2 | -1.212
B3 | -1.109
B4 | 0.1966
B5 | -1.076
B6 | -0.7687
B7 | 0.9844
